# Experimental data taken from PMC6180485, “Elongation/Termination Factor Exchange Mediated by PP1 Phosphatase Orchestrates Transcription Termination” (Cell Reports, 2018).
# Non-standard residues stand in square brackets, D forms with d. No end group written: not given here. pS = N[C@@H](COP(=O)(O)O)C(=O)O; FAM = 5'-fluorescein amidite
# T1: Double-repeated Ser5P (Schizosaccharomyces pombe)
# T1 chain: {FAM}-YSPT[pS]PSYSPT[pS]PS
# T2: S. cerevisiae Pcf11 CID1-144 (S. cerevisiae, UniProt P39081 1-144)
# T2 chain: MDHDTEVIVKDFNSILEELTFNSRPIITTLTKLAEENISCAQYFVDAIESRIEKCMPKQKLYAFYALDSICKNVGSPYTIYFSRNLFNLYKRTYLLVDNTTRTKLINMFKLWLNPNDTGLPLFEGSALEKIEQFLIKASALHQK
# T3: S. pombe Pcf11 CID1-139 with an N-terminal His6-SUMO tag (S. pombe)
# T3 chain: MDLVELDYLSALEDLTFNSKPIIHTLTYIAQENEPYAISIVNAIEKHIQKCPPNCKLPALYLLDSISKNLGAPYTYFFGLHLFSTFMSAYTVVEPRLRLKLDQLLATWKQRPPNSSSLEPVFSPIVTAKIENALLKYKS
# B1: S. cerevisiae Rtt103 CID (domain or fragment)
# chain: MPFSSEQFTTKLNTLEDSQESISSASKWLLLQYRDAPKVAEMWKEYMLRPSVNTRRKLLGLYLMNHVVQQAKGQKIIQFQDSFGKVAAEVLGRINQEFPRDLKKKLSRVVNILKERNIFSKQVVNDIERSLKTESSPVEALVLPQKLKDFAKDYEKLVKMHH
# B2: S. pombe Seb1 CID1-148 (domain or fragment)
# chain: MSGIAEFDGILDSLEHSKTGISGSKILKLTNLSMENVSENAQFVASVYKYAKRAPVTHKLGALYILDSIVRSFQDGAKKNNESFENPVDASFSGGWCKAAEITDSLVADAIQHAPSAHLPKILKLCDIWEKASTFPPEKLESLRSKLK
# B3: S. cerevisiae Nrd1 CID1-152 (domain or fragment)
# chain: MQQDDDFQNFVATLESFKDLKSGISGSRIKKLTTYALDHIDIESKIISLIIDYSRLCPDSHKLGSLYIIDSIGRAYLDETRSNSNSSSNKPGTCAHAINTLGEVIQELLSDAIAKSNQDHKEKIRMLLDIWDRSGLFQKSYLNAIRSKCFAM
# B4: Full-length Seb1 with C-terminal His8-tag (natural protein, S. pombe, UniProt Q9UTE3 1-620, looked up)
# chain: MSGIAEFDGILDSLEHSKTGISGSKILKLTNLSMENVSENAQFVASVYKYAKRAPVTHKLGALYILDSIVRSFQDGAKKNNESFENPVDASFSGGWCKAAEITDSLVADAIQHAPSAHLPKILKLCDIWEKASTFPPEKLESLRSKLKDAMASTEPVSVDSAAAPSQSTNPEGNGGSVGSQAAAPTSRPVENDAASILEALAAFAQKAPVPSAAEESVSTPPQPAVAPSVSAVVPNLPVHPATAINAQSQSGNPLSNPLFQPSNVPQSIPSGPMGMKTGSVNDTQSQQITLMNVLASQNVPPAQIDSIMKAAFPNYNAPFQPAGVGSVPLPAPTSSQSLRLGSLHRSRSPSPRSGRPRRSPSPSHLSIPSTLPPADGVPKPTPDGFPRRFERDPTIPPDSIKVYSRTLFLGGITRSVREPVLRSMFERFGSVQSLILNHNYRHGFLKMFRRDAAEKAQVAMENVPFADTTIRTKWGVGFGPRECSDFSTGISVIPIRLLTDADRTWLVTAEYGGTGGLPITPGIALDEPDIEIGLGISSKAISKRGKDFAMRRDERFRGRKPYRGGPPIHHGERHFDSGNDWHGNPSTVPPPTNPYNPGYPYMDPNYSSGYVSQPPWQPQ
# notes: Seb1, S. pombe, full length; fractions containing monomeric Seb1 were used; also called Seb1(full-length)-His8; recombinant Seb1; source: E. coli Rosetta, purified (Ni-NTA, Superdex 200); not shown: His8, C-terminal, kept
# Assays:
# [1] = target: B4; assay: cross-linking; BS3 lysine-lysine cross-linking of reconstituted Seb1:Pol II (6:1 or 4:1 molar ratio) in CB buffer (50 mM HEPES pH 7.6, 150 mM NaCl), 30 min at 4 °C, mass spectrometry (pLink); conditions: both partners purified
# Double-repeated Ser5P = target: T1, Double-repeated Ser5P; assay: FP
# [2] = target: T2, S. cerevisiae Pcf11 CID1-144; assay: FP
# [3] = target: B3; assay: FP
# S. pombe Seb1 CID1-148 = target: B2; assay: FP
# S. cerevisiae Rtt103 CID = target: B1; assay: FP
# [4] = target: T3, S. pombe Pcf11 CID1-139 with an …; assay: FP
# [5] = target: T4, Rpb1, subunit of S. pombe Pol II (S. pombe, UniProt P36594 1-1752, CTD phosphorylated (Thr4P, Tyr1P, Ser2P, Ser5P detected by western blot)); assay: cross-linking; BS3 lysine-lysine cross-linking of reconstituted Seb1:Pol II (6:1 or 4:1 molar ratio) in CB buffer (50 mM HEPES pH 7.6, 150 mM NaCl), 30 min at 4 °C, mass spectrometry (pLink); conditions: both partners purified
# T4 construct: Rpb1, largest subunit of RNA polymerase II, S. pombe; stood in the assay as a subunit of m11; source: endogenous, S. pombe (Rpb9-Flag strain), purified as part of Pol II (anti-Flag M2 agarose)
# T4 sequence (P36594 whole entry): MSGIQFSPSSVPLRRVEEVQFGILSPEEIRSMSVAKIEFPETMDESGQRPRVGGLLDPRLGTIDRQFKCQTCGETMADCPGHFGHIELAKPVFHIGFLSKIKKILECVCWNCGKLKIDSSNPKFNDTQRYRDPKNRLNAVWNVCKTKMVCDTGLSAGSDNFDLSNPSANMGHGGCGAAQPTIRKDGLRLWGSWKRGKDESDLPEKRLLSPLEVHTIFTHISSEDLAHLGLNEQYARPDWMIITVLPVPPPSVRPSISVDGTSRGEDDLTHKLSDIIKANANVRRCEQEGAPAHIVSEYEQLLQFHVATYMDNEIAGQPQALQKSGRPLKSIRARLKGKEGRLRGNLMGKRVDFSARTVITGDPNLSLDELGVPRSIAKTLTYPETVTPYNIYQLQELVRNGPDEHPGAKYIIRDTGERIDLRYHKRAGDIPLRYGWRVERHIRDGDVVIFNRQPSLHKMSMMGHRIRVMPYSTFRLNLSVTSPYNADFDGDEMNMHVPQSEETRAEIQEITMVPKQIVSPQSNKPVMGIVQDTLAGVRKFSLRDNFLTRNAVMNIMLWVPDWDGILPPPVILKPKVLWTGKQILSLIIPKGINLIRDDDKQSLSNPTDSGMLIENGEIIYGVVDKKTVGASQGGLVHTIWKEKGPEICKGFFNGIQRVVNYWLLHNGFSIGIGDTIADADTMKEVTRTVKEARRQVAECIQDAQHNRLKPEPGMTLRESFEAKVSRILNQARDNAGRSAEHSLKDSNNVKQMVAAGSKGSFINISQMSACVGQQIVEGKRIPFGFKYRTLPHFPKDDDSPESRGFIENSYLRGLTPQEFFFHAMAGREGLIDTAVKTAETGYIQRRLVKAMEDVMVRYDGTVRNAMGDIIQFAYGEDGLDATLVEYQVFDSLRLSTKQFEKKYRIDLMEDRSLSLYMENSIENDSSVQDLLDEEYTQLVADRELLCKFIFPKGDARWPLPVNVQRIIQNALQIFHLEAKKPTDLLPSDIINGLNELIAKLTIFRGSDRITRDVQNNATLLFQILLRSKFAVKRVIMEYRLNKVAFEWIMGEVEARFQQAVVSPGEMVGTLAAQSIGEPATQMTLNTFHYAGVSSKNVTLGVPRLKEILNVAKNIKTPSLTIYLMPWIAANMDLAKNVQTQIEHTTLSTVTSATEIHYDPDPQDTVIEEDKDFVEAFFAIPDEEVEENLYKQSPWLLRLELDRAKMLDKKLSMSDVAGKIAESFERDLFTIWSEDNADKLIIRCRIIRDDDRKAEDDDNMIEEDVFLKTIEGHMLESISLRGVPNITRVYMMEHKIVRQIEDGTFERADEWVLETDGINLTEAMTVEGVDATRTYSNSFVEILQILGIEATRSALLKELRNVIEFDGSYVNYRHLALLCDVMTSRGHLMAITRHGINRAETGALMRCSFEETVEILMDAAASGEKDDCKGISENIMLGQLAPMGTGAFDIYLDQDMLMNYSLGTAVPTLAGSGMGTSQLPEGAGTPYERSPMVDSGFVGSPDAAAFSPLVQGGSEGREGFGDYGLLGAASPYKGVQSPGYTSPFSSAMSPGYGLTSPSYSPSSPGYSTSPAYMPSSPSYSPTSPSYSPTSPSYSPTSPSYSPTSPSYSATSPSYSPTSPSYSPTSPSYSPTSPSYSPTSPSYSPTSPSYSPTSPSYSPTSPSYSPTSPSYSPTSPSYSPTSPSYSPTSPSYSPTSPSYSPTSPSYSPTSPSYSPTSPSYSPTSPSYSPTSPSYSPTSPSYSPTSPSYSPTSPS
# [6] = target: T5, Rpb2, subunit of S. pombe Pol II (S. pombe, UniProt Q02061 1-1210); assay: as above; conditions: both partners purified
# T5 construct: Rpb2, RNA polymerase II subunit, S. pombe; stood in the assay as a subunit of m11; source: endogenous, S. pombe (Rpb9-Flag strain), purified as part of Pol II (anti-Flag M2 agarose, HiTrap Q)
# T5 sequence (Q02061 whole entry): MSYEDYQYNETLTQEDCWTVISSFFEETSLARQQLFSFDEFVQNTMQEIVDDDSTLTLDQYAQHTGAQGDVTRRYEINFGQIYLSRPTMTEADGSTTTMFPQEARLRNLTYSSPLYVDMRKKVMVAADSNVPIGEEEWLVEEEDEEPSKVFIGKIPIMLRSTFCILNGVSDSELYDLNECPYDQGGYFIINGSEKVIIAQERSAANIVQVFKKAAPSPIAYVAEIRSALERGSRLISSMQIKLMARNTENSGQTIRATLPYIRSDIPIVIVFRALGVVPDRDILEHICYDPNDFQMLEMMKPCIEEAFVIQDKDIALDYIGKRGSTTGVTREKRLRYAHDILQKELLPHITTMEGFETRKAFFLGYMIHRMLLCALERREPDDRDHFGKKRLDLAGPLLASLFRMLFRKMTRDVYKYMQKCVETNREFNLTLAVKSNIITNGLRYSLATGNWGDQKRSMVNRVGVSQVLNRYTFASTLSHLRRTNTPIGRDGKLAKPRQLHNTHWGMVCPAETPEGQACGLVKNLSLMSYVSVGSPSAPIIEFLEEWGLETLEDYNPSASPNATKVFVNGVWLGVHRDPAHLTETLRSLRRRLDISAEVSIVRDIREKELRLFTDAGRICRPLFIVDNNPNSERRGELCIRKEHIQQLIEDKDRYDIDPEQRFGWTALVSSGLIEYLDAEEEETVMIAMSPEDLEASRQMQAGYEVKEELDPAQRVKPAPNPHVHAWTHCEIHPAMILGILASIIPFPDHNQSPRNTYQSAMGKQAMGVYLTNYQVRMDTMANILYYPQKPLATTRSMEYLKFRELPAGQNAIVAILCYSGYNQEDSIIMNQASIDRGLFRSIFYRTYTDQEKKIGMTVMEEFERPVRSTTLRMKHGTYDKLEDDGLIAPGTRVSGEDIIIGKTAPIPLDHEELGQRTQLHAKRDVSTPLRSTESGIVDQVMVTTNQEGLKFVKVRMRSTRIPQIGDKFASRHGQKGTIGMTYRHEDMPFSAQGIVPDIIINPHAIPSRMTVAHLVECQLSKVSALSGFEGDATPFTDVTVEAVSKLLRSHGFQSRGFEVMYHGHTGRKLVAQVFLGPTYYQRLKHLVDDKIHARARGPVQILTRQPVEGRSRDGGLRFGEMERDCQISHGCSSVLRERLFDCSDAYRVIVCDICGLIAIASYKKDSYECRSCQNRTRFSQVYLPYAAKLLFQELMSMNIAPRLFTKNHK
Binder,binding result [1],Kd (Double-repeated Ser5P),other results
"Rpc10, subunit of S. pombe Pol II (natural protein, UniProt P48011 1-63, looked up, Rpc10, RNA polymerase subunit, S. pombe; stood in the assay as a subunit of m11; source: endogenous, S. pombe (Rpb9-Flag strain), purified as part of Pol II (anti-Flag M2 agarose, HiTrap Q)) MNHPTSTGGTAFNPPRPATMIYLCADCGARNTIQAKEVIRCRECGHRVMYKMRTKRMVQFEAR",binds,–,–
"Rpb3, subunit of S. pombe Pol II (natural protein, UniProt P37382 1-297, looked up, Rpb3, RNA polymerase II subunit, S. pombe; stood in the assay as a subunit of m11; source: endogenous, S. pombe (Rpb9-Flag strain), purified as part of Pol II (anti-Flag M2 agarose, HiTrap Q)) MDSETHITIRNISKNSVDFVLTNTSLAVANSLRRVVLAEIPTVAIDLVEINVNTSVMPDEFLAHRLGMIPLDSSNIDEPPPVGLEYTRNCDCDQYCPKCSVELFLNAKCTGEGTMEIYARDLVVSSNSSLGHPILADPKSRGPLICKLRKEQEISLRCIAKKGIAKEHAKWSPTSAVAFEYDPWNKLQHTDYWFENDADAEWPKSKNADWEEPPREGEPFNFQEEPRRFYMDVESVGSIPPNEIMVQGLRILQEKLAVLVRDLDEEQPTQLSANELNMEENAEMNWSPYQNGEENTW",binds,–,–
B1,–,> 1000 µM,–
"Rpb4, subunit of S. pombe Pol II (natural protein, UniProt O74825 1-135, looked up, Rpb4, RNA polymerase II subunit, S. pombe; stood in the assay as a subunit of m11; source: endogenous, S. pombe (Rpb9-Flag strain), purified as part of Pol II (anti-Flag M2 agarose, HiTrap Q)) MPRAIFEEDAAQLKLGPEFENEDMLTVSEAKILIETVLAQRARETNGEIPMTDVMKKTVAYFNVFARFKTAEATYACERILGNRFHKFERAQLGTLCCEDAEEARTLIPSLANKIDDQNLQGILDELSTLRKFQD",binds,–,–
"Rpb7, subunit of S. pombe Pol II (natural protein, UniProt O14459 1-172, looked up, Rpb7, RNA polymerase II subunit, S. pombe; stood in the assay as a subunit of m11; source: endogenous, S. pombe (Rpb9-Flag strain), purified as part of Pol II (anti-Flag M2 agarose, HiTrap Q)) MPFFLKELSLTISLHPSYFGPRMQDYLKAKLLADVEGTCSGQYGYIICVLDSNTIDIDKGRVVPGQGFAEFEVKYRAVLWRPFRGEVVDAIVTTVNKMGFFANIGPLNVFVSSHLVPPDMKFDPTANPPNYSGEDQVIEKGSNVRLKIVGTRTDATEIFAIATMKEDYLGVL",binds,–,–
"{FAM}-YSPTSPSYSPTSPS (also: phospho-Ser2 of heptad, which repeat not given here) [FAM-labeled two-repeat CTD peptide, Ser2P]",–,–,Kd [2]: 127 µM; Kd [3]: 126 µM; Kd (S. pombe Seb1 CID1-148): 72.3 µM; Kd (S. cerevisiae Rtt103 CID): 32.3 µM; Kd [4]: 48.1 µM
B2,–,281 µM,–
"Rpb5, subunit of S. pombe Pol II (natural protein, UniProt Q09191 1-210, looked up, Rpb5, RNA polymerase subunit, S. pombe; stood in the assay as a subunit of m11; source: endogenous, S. pombe (Rpb9-Flag strain), purified as part of Pol II (anti-Flag M2 agarose, HiTrap Q)) MSAEEKNIVRVFRAWKTAHQLVHDRGYGVSQAELDLTLDQFKAMHCGMGRNLDRTTLSFYAKPSNDSNKGTIYIEFAKEPSVGIKEMRTFVHTLGDHNHKTGILIYANSMTPSAAKIIATVTGQFTIETFQESDLIVNITHHELVPKHILLSPDEKKELLDRYKLRETQLPRIQLADPVARYLGLKRGEVVKIVRRSETSGRYNSYRICA",binds,–,–
B3,–,65.8 µM,–
B4,–,–,binding result [5]: binds; binding result [6]: binds
